{
  "source": "paper PMC6321344",
  "about": "“Evaluation of [^68Ga]Ga-DOTA-TCTP-1 for the Detection of Metalloproteinase 2/9 Expression in Mouse Atherosclerotic Plaques” (Molecules, 2018)",
  "key": {"[1]": {"system": "MMP-2/9", "settings": "quoted with the dose of the commercial inhibitor; ref product number 444251, Merck KGaA; cited from earlier work"}, "[2]": {"assay": "in vivo", "design": "species or system mouse", "settings": "both sexes, iv, 18 MBq, total radioactivity, Tracer uptake", "from_the_text": "(§1) Sixteen (eleven males, five females) low-density lipoprotein receptor deficient mice expressing only apolipoprotein B100 (LDLR^-/-ApoB^100/100, Jackson Laboratory, Bar Harbor, ME, USA, strain #003000) were used. Mice were kept on a Western-type diet for 4.4 months starting at the age of 3.5 months. Forty-two percent of their calorific intake consisted of fat and 0.2% cholesterol (TD 88137, Harlan Teklad, Harlan Laboratories, Madison, WI, USA). Nine C57BL/6N mice on a regular chow diet (five males, four females) were used as controls. The mean age and weight of the studied mice at the time of tracer injection were 8.2 ± 0.70 months and 38 ± 8.0 g for the LDLR^-/-ApoB^100/100 mice, and 3.9 ± 0.86 months and 31 ± 5.8 g for the controls. During the studies, mice were housed under standard conditions (light and humidity) with ad libitum access to water and food. The study protocol was approved by the National Animal Experiment Board in Finland and the Regional State Administrative Agency for Southern Finland, and carried out in compliance with the relevant European Union directives. The high-performance liquid chromatography (HPLC) system was a LaChrom instrument (Hitachi; Merck Darmstadt, Germany), including a pump L7100, an ultraviolet (UV) detector L-7400, an interface D-7000 and a computerized data acquisition and processing software. The reversed-phase HPLC column (μBondapak 10 μm C18, 7.8 × 300 mm, pore size 125 Å) was purchased from Waters Corporation, Milford, MA, USA. The online radioisotope detector (Radiomatic 150 TR, Flow Scintillation Analyzer) was from Packard, Meriden, CT, USA. The precursor compound DOTA-TCTP-1 (Figure 1) was obtained as a custom synthesis from Peptide Specialty Laboratories GmbH (Heidelberg, Germany).\n(§2) Isoflurane anesthetized mice were intravenously (i.v.) injected with 18 ± 2.7 MBq (in 50–100 µL) of [^68Ga]Ga-DOTA-TCTP-1 via the tail vein. At 60 min after tracer injection, a blood sample was obtained by cardiac puncture and animals were killed by cervical dislocation. Various tissues were excised, weighed, and measured for radioactivity on a gamma counter (Triathler 3”, Hidex, Turku, Finland). Radioactivity values were normalized by the injected radioactivity dose decay with a delta time between injection and measurement, animal weight, and the weight of tissue. Results are expressed as the percentage of injected radioactivity dose per gram of tissue (%ID/g)."}, "[3]": {"assay": "in vivo", "settings": "LDLR^-/-ApoB^100/100, mouse, iv, 11 MBq, total radioactivity", "description": "A subset of mice (three atherosclerotic and three healthy controls) were imaged using a small-animal PET/computed tomography (CT) scanner (Inveon Multimodality; Siemens Medical Solutions, Knoxville, TN, USA). The mice were anesthetized using 1.5% isoflurane, and their temperature was maintained using a heating pad throughout the imaging. Mice were i.v. injected with 11 ± 0.86 MBq (in 50–100 µL) of [^68Ga]Ga-DOTA-TCTP-1 via the tail vein. PET data were acquired in a list-mode for 60 min, starting from the time of injection of [^68Ga]Ga-DOTA-TCTP-1. The images were reconstructed using an ordered-subset expectation maximization 2D algorithm with four iterations into 30 × 3 s, 9 × 10 s, 4 × 30 s, 5 × 60 s, and […] time frames. Immediately after the PET scan, 100 µL of intravascular iodinated contrast agent eXIATM160XL (Binitio Biomedical Inc., Ottawa, ON, Canada) was injected and high-resolution CT was acquired (80 kV, 500 μA). CT images were reconstructed using a Feldkamp-based algorithm, and images were analyzed using Carimas v.2.6 software (Turku PET Centre, Turku, Finland). ROIs were drawn in the aortic arch, blood pool (inside the LV cavity), and several relevant organs, according to the high-resolution CT image. Results are reported as the percentage of injected dose per gram (%ID/g) as a function of the time after injection, i.e., as time-activity curves."}, "[4]": {"assay": "in vivo", "settings": "both sexes, C57BL/6N, mouse, iv, 18 MBq, total radioactivity, Tracer uptake", "from_the_text": "as §1, §2"}},
  "note": "Positions of bridges follow the written chain, without caps; N, C: chain ends. Residues, ends and D or L forms follow the SMILES beside them. *: point of attachment. X1 = O=C(O)CN1CCN(CC(=O)O)CCN(CC(=O)NCCOCCOCCN*)CCN(CC(=O)O)CC1",
  "data": [
    {"molecule": "H-Cys^1-Thr-Thr-His-Trp-Gly-Phe-Thr-Leu-Cys^10-OH (cyclic: 1→10) (disulfide) [MMP-2/9 inhibitor]", "values": [
      {"measurement": "IC50", "setting": "[1]", "value": 10, "unit": "µM"}
    ]},
    {"molecule": "CC(C)C[C@@H]1NC(=O)[C@@H](NC(=O)[C@H](C)NC(=O)CN)CSSC[C@@H](C(=O)NCC(=O)NCCOCCOCCNC(=O)CN2CCN(CC(=O)O)CCN(CC(=O)O)CCN(CC(=O)O)CC2)NC(=O)CNC(=O)[C@H](CCCNC(=N)N)NC(=O)CNC(=O)[C@H](CO)NC(=O)[C@H](CCCNC(=N)N)NC1=O", "note": "[[^68Ga]Ga-DOTA-TCTP-1, metal not drawn] (H-GACLRSGRGCG-X1; disulfide 3-10)", "values": [
      {"measurement": "tissue uptake at 1 h", "setting": "[2]; LDLR-/-ApoB100/100, mouse, Bone", "value": "0.53 ± 0.37", "unit": "%ID/g"},
      {"measurement": "tissue uptake at 1 h", "setting": "[2]; LDLR-/-ApoB100/100, mouse, Heart", "value": "0.23 ± 0.083", "unit": "%ID/g"},
      {"measurement": "tissue uptake at 1 h", "setting": "[2]; LDLR-/-ApoB100/100, mouse, Intestine", "value": "0.59 ± 0.22", "unit": "%ID/g"},
      {"measurement": "tissue uptake at 1 h", "setting": "[2]; LDLR-/-ApoB100/100, mouse, Kidneys", "value": "8 ± 2.9", "unit": "%ID/g"},
      {"measurement": "tissue uptake at 1 h", "setting": "[2]; LDLR-/-ApoB100/100, mouse, Liver", "value": "1.8 ± 0.48", "unit": "%ID/g"},
      {"measurement": "tissue uptake at 1 h", "setting": "[2]; LDLR^-/-ApoB^100/100, mouse, Aorta", "value": "0.43 ± 0.19", "unit": "%ID/g"},
      {"measurement": "tissue uptake at 1 h", "setting": "[2]; LDLR^-/-ApoB^100/100, mouse, Blood", "value": "1.3 ± 0.4", "unit": "%ID/g"},
      {"measurement": "tissue uptake at 1 h", "setting": "[2]; LDLR^-/-ApoB^100/100, mouse, Lungs", "value": "2.8 ± 1.6", "unit": "%ID/g"},
      {"measurement": "tissue uptake at 1 h", "setting": "[2]; LDLR^-/-ApoB^100/100, mouse, Lymph node", "value": "0.49 ± 0.15", "unit": "%ID/g"},
      {"measurement": "tissue uptake at 1 h", "setting": "[2]; LDLR^-/-ApoB^100/100, mouse, Pancreas", "value": "0.35 ± 0.17", "unit": "%ID/g"},
      {"measurement": "tissue uptake at 1 h", "setting": "[2]; LDLR^-/-ApoB^100/100, mouse, Plasma", "value": "2.6 ± 1.4", "unit": "%ID/g"},
      {"measurement": "tissue uptake at 1 h", "setting": "[2]; LDLR^-/-ApoB^100/100, mouse, Salivary gland", "value": "0.38 ± 0.15", "unit": "%ID/g"},
      {"measurement": "tissue uptake at 1 h", "setting": "[2]; LDLR^-/-ApoB^100/100, mouse, Skeletal muscle", "value": "0.19 ± 0.077", "unit": "%ID/g"},
      {"measurement": "tissue uptake at 1 h", "setting": "[2]; LDLR^-/-ApoB^100/100, mouse, Spleen", "value": "1.9 ± 1.6", "unit": "%ID/g"},
      {"measurement": "tissue uptake at 1 h", "setting": "[2]; LDLR^-/-ApoB^100/100, mouse, Thymus", "value": "0.35 ± 0.29", "unit": "%ID/g"},
      {"measurement": "tissue uptake at 1 h", "setting": "[2]; LDLR^-/-ApoB^100/100, mouse, WAT (white adipose tissue)", "value": "0.17 ± 0.21", "unit": "%ID/g"},
      {"measurement": "tissue uptake at 1 h", "setting": "[3]; Radioactivity in myocardium (PET/CT)", "value": "0.81 ± 0.3", "unit": "%ID/g"},
      {"measurement": "tissue uptake at 1 h", "setting": "[3]; Uptake in atherosclerotic aorta (PET/CT)", "value": "0.77 ± 0.16", "unit": "%ID/g"},
      {"measurement": "tissue uptake at 1 h", "setting": "[3]; Uptake in blood pool (PET/CT)", "value": "1.1 ± 0.64", "unit": "%ID/g"},
      {"measurement": "tissue uptake at 1 h", "setting": "[3]; Uptake in liver (PET/CT)", "value": "4.7 ± 3.8", "unit": "%ID/g"},
      {"measurement": "tissue uptake at 1 h", "setting": "[4]; Aorta", "value": "0.52 ± 0.25", "unit": "%ID/g"},
      {"measurement": "tissue uptake at 1 h", "setting": "[4]; Blood", "value": "0.69 ± 0.21", "unit": "%ID/g"},
      {"measurement": "tissue uptake at 1 h", "setting": "[4]; Bone", "value": "0.63 ± 0.5", "unit": "%ID/g"},
      {"measurement": "tissue uptake at 1 h", "setting": "[4]; Heart", "value": "0.16 ± 0.066", "unit": "%ID/g"},
      {"measurement": "tissue uptake at 1 h", "setting": "[4]; Intestine", "value": "0.43 ± 0.18", "unit": "%ID/g"},
      {"measurement": "tissue uptake at 1 h", "setting": "[4]; Kidneys", "value": "8.9 ± 3.6", "unit": "%ID/g"},
      {"measurement": "tissue uptake at 1 h", "setting": "[4]; Liver", "value": "3.2 ± 1.6", "unit": "%ID/g"},
      {"measurement": "tissue uptake at 1 h", "setting": "[4]; Lungs", "value": "1.3 ± 0.74", "unit": "%ID/g"},
      {"measurement": "tissue uptake at 1 h", "setting": "[4]; Lymph node", "value": "0.48 ± 0.19", "unit": "%ID/g"},
      {"measurement": "tissue uptake at 1 h", "setting": "[4]; Pancreas", "value": "0.17 ± 0.056", "unit": "%ID/g"},
      {"measurement": "tissue uptake at 1 h", "setting": "[4]; Plasma", "value": "1.5 ± 1", "unit": "%ID/g"},
      {"measurement": "tissue uptake at 1 h", "setting": "[4]; Salivary gland", "value": "0.23 ± 0.07", "unit": "%ID/g"},
      {"measurement": "tissue uptake at 1 h", "setting": "[4]; Skeletal muscle", "value": "0.17 ± 0.13", "unit": "%ID/g"},
      {"measurement": "tissue uptake at 1 h", "setting": "[4]; Spleen", "value": "1.7 ± 1.3", "unit": "%ID/g"},
      {"measurement": "tissue uptake at 1 h", "setting": "[4]; Thymus", "value": "0.23 ± 0.07", "unit": "%ID/g"},
      {"measurement": "tissue uptake at 1 h", "setting": "[4]; WAT (white adipose tissue)", "value": "0.17 ± 0.11", "unit": "%ID/g"}
    ]}
  ]
}
